Target: His-tagged MafAI (MafAI.1 of N. meningitidis BB-1, from plasmid pEN-mafAI-H) (Neisseria meningitidis strain BB-1)
Assay: semi-native SDS-PAGE with Western blot (heat modifiability); cell envelopes of BB-1, samples heated at 95°C or not before electrophoresis; sample buffer with 0.2% SDS and no β-mercaptoethanol, run on ice; detected with anti-His-tag antibodies (MafAI) or anti-MafAII antiserum

Substance: His-tagged MafAI (MafAI.1 of N. meningitidis BB-1, from plasmid pEN-mafAI-H) (natural protein)
- stoichiometry N: 8 subunits

Source: paper PMC7738311
